{"source": "patent US20140072613A1", "about": "(published 2014)", "binders": {"B1": {"name": "MMI-0300 (peptide)", "peptide": "FAKLAARLYRKALARQLGVAA"}, "B2": {"name": "MMI-0400 (peptide)", "peptide": "KAFAKLAARLYRKALARQLGVAA"}}, "assay_in_all_cases": "cell-based or functional assay", "key": {"DMPK(h)": {"molecular_target": "T1, DMPK(h) (human, UniProt Q09013 1-629, limits assumed)", "T1 sequence (looked up)": "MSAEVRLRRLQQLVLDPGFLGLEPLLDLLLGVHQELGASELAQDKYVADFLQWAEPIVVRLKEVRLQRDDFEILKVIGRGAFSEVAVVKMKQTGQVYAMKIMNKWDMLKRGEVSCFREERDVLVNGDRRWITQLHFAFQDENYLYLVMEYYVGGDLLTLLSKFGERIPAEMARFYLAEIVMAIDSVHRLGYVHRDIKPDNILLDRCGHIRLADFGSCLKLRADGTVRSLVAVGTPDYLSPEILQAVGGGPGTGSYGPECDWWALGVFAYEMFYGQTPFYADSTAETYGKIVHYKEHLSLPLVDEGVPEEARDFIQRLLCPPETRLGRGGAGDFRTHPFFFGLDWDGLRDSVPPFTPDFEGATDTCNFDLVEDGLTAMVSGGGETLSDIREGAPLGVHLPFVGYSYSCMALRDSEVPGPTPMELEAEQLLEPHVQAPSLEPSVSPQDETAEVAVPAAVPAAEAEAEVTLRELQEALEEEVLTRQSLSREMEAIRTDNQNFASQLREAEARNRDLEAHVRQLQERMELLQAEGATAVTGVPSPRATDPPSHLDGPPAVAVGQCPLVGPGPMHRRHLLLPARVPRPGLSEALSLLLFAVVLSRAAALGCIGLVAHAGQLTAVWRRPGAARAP"}, "Ret(V804L)(h)": {"molecular_target": "T2, Ret(V804L)(h) (human, UniProt P07949 658-1114, limits assumed)", "T2 sequence (looked up)": "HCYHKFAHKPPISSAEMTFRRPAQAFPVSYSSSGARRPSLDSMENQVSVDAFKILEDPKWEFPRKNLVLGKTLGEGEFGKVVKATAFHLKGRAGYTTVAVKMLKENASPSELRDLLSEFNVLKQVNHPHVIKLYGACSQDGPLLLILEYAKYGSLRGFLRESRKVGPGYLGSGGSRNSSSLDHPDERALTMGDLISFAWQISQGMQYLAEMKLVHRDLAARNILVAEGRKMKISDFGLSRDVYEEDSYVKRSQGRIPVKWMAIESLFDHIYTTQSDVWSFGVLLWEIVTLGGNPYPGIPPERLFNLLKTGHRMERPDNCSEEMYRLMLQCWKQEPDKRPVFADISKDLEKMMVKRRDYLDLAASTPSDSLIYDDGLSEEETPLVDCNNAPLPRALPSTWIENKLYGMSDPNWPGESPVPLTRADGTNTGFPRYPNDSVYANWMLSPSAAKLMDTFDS"}, "ZAP-70(h)": {"molecular_target": "T3, ZAP-70(h) (human, UniProt P43403 1-619)", "T3 sequence (looked up)": "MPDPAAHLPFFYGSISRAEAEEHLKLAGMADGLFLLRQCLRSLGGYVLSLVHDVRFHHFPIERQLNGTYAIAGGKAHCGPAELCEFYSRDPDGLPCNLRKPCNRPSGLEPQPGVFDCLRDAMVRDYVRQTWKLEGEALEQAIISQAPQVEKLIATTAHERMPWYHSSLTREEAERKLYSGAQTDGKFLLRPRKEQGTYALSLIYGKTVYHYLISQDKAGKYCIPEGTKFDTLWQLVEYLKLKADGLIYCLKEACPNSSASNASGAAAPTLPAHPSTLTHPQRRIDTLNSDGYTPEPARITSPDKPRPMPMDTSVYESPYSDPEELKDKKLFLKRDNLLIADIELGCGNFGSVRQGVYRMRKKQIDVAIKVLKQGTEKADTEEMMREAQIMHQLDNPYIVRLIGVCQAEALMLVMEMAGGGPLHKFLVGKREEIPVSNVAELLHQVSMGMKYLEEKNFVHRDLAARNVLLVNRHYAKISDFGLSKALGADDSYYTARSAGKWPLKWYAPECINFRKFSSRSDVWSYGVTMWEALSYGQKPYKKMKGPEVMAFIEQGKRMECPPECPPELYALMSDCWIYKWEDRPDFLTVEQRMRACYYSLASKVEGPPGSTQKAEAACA"}, "PAK6(h)": {"molecular_target": "PAK6(h) (human, UniProt Q9NQU5 1-681, limits assumed)", "sequence (Q9NQU5 whole entry)": "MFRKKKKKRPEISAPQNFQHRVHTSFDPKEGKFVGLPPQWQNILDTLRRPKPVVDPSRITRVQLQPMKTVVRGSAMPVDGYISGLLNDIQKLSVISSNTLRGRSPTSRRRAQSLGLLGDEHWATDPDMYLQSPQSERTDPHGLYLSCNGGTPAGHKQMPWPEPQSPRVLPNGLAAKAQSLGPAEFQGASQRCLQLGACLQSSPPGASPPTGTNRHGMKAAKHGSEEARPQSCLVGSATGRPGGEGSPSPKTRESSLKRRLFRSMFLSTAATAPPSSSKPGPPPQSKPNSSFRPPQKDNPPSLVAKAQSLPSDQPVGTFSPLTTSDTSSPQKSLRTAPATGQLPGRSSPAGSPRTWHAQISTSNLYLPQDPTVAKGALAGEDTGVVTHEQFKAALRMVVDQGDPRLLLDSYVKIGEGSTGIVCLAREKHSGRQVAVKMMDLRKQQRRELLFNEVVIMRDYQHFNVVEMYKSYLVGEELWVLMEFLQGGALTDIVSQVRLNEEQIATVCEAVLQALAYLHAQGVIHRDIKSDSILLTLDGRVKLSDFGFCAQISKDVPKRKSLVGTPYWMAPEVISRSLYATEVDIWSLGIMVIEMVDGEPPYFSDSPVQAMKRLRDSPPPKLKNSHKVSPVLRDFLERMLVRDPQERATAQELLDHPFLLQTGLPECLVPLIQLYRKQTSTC"}, "Axl(h)": {"molecular_target": "T4, Axl(h) (human, UniProt P30530 473-894, limits assumed)", "T4 sequence (looked up)": "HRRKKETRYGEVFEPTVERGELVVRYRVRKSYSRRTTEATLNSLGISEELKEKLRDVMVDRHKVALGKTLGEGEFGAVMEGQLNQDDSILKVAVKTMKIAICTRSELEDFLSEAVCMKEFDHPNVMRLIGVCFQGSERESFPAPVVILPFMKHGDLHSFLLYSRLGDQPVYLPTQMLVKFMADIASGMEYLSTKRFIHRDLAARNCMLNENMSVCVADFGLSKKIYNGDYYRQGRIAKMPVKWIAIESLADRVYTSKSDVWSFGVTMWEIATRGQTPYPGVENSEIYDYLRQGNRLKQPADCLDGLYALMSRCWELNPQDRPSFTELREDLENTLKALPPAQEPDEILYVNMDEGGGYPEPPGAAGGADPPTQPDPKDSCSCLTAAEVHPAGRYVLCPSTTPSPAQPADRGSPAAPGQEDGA"}, "cKit(D816H)(h)": {"molecular_target": "cKit(D816H)(h) (human, UniProt P10721 544-976)", "sequence (P10721 544-976 D816H)": "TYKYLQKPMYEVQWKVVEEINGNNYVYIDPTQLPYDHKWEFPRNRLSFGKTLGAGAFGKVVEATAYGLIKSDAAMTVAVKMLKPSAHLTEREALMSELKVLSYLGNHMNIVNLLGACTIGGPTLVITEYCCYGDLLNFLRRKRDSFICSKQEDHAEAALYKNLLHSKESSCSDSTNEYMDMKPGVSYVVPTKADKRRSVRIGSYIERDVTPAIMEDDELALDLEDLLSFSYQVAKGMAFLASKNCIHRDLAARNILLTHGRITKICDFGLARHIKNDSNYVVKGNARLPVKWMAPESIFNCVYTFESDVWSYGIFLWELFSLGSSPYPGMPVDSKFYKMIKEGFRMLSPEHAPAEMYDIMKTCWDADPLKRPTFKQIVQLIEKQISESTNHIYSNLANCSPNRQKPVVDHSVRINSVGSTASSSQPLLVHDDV"}, "MAPK2(h)": {"molecular_target": "MAPK2(h) (human, UniProt P28482 1-360)", "sequence (P28482 whole entry)": "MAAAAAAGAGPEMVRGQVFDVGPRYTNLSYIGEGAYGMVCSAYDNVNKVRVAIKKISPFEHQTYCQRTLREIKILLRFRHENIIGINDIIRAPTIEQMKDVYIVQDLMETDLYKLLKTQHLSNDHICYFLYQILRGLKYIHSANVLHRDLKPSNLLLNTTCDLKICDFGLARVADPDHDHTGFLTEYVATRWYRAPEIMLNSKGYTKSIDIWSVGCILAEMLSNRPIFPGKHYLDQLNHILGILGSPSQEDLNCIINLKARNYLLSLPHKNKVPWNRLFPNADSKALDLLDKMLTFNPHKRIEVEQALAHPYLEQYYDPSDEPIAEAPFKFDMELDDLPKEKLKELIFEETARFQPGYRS"}, "EphA3(h)": {"molecular_target": "T5, EphA3(h) (human, UniProt P29320 566-983, limits assumed)", "T5 sequence (looked up)": "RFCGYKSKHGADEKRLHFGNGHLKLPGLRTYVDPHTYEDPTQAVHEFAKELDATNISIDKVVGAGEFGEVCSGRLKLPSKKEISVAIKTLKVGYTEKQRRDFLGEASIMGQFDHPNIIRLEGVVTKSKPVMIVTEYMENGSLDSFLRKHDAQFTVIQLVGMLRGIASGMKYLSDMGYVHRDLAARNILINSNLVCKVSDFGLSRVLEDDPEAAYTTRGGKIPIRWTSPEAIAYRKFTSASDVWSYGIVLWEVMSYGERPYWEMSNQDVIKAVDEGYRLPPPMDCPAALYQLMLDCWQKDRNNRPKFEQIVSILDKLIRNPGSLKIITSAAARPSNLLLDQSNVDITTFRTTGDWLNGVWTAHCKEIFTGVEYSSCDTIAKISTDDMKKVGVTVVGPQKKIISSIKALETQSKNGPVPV"}, "Rsk1(h)": {"molecular_target": "Rsk1(h) (human, UniProt Q15418 1-735)", "sequence (Q15418 whole entry)": "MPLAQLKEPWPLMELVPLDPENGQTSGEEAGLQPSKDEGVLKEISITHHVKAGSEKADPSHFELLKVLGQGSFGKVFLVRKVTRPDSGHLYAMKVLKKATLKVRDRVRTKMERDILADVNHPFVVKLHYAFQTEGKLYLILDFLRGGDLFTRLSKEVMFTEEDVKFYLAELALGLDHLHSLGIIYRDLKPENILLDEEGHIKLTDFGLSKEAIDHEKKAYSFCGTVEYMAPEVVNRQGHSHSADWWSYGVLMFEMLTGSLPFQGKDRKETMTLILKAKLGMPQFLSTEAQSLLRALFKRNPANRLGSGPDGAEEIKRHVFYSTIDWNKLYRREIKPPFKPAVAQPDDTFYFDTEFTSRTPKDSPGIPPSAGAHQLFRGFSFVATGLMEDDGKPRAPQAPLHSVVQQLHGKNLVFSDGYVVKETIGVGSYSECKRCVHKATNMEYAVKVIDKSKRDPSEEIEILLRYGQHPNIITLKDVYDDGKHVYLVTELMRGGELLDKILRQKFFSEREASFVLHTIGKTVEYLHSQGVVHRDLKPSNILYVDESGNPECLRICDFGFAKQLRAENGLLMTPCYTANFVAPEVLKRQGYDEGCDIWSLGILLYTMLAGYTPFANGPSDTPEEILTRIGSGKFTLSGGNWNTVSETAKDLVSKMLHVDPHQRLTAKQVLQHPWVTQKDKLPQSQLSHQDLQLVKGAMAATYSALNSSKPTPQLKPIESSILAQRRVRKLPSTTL"}, "CDK6/cyclinD3(h)": {"molecular_target": "CDK6/cyclinD3(h) (human, UniProt Q00534 1-326; P30281 1-292)", "sequence (Q00534 whole entry, chain 1 of 2)": "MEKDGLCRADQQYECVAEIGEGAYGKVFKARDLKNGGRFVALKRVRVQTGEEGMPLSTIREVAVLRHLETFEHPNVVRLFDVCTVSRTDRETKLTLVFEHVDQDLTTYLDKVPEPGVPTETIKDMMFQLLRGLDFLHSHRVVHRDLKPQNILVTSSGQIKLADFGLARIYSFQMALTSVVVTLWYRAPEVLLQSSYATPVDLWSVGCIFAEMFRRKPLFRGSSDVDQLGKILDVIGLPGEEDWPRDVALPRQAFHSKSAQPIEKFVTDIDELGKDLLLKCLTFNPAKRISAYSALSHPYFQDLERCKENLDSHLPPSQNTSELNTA", "sequence (P30281 whole entry, chain 2 of 2)": "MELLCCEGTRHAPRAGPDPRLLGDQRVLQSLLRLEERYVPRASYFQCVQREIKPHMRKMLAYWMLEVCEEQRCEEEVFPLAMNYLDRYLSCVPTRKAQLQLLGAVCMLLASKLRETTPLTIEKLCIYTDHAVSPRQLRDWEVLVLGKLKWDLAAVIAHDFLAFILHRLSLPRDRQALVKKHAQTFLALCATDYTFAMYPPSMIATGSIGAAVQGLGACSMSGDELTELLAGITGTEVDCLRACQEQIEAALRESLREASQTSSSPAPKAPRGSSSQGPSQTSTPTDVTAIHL"}}}
{"binder": "B1", "values": [{"measurement": "% activity, 100 µM", "setting": "DMPK(h)", "value": 59, "unit": "%"}, {"measurement": "% activity, 100 µM", "setting": "Ret(V804L)(h)", "value": 79, "unit": "%"}, {"measurement": "% activity, 100 µM", "setting": "ZAP-70(h)", "value": 75, "unit": "%"}, {"measurement": "% activity, 100 µM", "setting": "PAK6(h)", "value": 104, "unit": "%"}, {"measurement": "% activity, 100 µM", "setting": "Axl(h)", "value": 52, "unit": "%"}, {"measurement": "% activity, 100 µM", "setting": "cKit(D816H)(h)", "value": 126, "unit": "%"}, {"measurement": "% activity, 100 µM", "setting": "MAPK2(h)", "value": 98, "unit": "%"}, {"measurement": "% activity, 100 µM", "setting": "EphA3(h)", "value": 6, "unit": "%"}, {"measurement": "% activity, 100 µM", "setting": "Rsk1(h)", "value": 46, "unit": "%"}, {"measurement": "% activity, 100 µM", "setting": "CDK6/cyclinD3(h)", "value": 86, "unit": "%"}]}
{"binder": "B2", "values": [{"measurement": "% activity, 100 µM", "setting": "DMPK(h)", "value": 54, "unit": "%"}, {"measurement": "% activity, 100 µM", "setting": "Ret(V804L)(h)", "value": 73, "unit": "%"}, {"measurement": "% activity, 100 µM", "setting": "ZAP-70(h)", "value": 33, "unit": "%"}, {"measurement": "% activity, 100 µM", "setting": "PAK6(h)", "value": 100, "unit": "%"}, {"measurement": "% activity, 100 µM", "setting": "Axl(h)", "value": 41, "unit": "%"}, {"measurement": "% activity, 100 µM", "setting": "cKit(D816H)(h)", "value": 143, "unit": "%"}, {"measurement": "% activity, 100 µM", "setting": "MAPK2(h)", "value": 93, "unit": "%"}, {"measurement": "% activity, 100 µM", "setting": "EphA3(h)", "value": 12, "unit": "%"}, {"measurement": "% activity, 100 µM", "setting": "Rsk1(h)", "value": 54, "unit": "%"}, {"measurement": "% activity, 100 µM", "setting": "CDK6/cyclinD3(h)", "value": 85, "unit": "%"}]}
